Experimental data taken from article PMC12333375.

What was measured:
[1] = target: AAV8 capsid (adeno-associated virus serotype 8 capsid) (adeno-associated virus serotype 8 (AAV8)) (UniProt Q8JQF8); test: native MS; orbitrap-based charge detection-mass spectrometry (CD-MS) of nSEC fraction F2 (capsid dimers), infused by CE with sheath liquid interface at about 80 nL/min, 200 mM ammonium acetate, nano ESI, triplicates
[2] = target: AAV8 capsid (adeno-associated virus serotype 8 capsid) (adeno-associated virus serotype 8 (AAV8)) (UniProt Q8JQF8); test: SEC-MALS; offline native SEC (AdvanceBio SEC 300 x 7.8 mm, 2.7 um, 500 A) with 20-angle MALS and DAD at 260 and 280 nm; 1:1 (v/v) mixture of empty and full AAV8 capsids; 200 mM ammonium acetate, 1.0 mL/min, 6 replicates; capsid dimer against capsid monomer by peak area

## AAV8 capsid (adeno-associated virus serotype 8 capsid) (from UniProt Q8JQF8 1-738) (complex)
[1]
  % empty capsid dimers (CD-MS): 1%
  % filled capsid dimers (CD-MS): 3%
  stoichiometry N: 2
[2]
  % AAV8 capsid dimer (peak area, absorbance at 260 nm): 0.9%
  % AAV8 capsid dimer (peak area, absorbance at 280 nm): 1%
  stoichiometry N: 2
